Experiments:
Conditions in all cases: both partners purified
[1] = target: T1, actin capping protein (CP), chicken α1/β1, CP_full (chicken, UniProt P13127 1-286; P14315 1-277); assay: SPR; competition: GST-CA92 immobilised, perfused with 50 nM wild type CP pre-mixed with various concentrations of CARMIL peptides (CA21 up to 500 nM)
[2] = target: CPβΔC (chicken α1 full/β1 1–244; a deletion mutant CP lacking the β-tentacle) (chicken, UniProt P13127 1-286; P14315 1-244); assay: crystal structure; complexes formed with 1.2–2.0-fold molar excess of V-1 or peptide and purified by gel filtration; hanging-drop vapor diffusion at 20°C; molecular replacement
[3] = target: T1, actin capping protein (CP), chicken …; assay: SPR; as a1, but koff >0.1 s^-1: amount of bound CP at the steady state plotted against the concentration of CP (Michaelis-Menten plots under saturated binding conditions)
[4] = target: CP (β) D44N (chicken, UniProt P13127 1-286; P14315 1-277, D44N); assay: as above
[5] = target: CP (β) D63N (chicken, UniProt P13127 1-286; P14315 1-277, D63N); assay: as above
[6] = target: CP (β) D67N (chicken, UniProt P13127 1-286; P14315 1-277, D67N); assay: as above
[7] = target: CP (β) Y64F (chicken, UniProt P13127 1-286; P14315 1-277, Y64F); assay: SPR; GST-fusion protein (GST-V-1, GST-CA or GST-CD) immobilised on a CM5 chip via anti-GST antibodies (up to 200 RU), CP perfused at 20 µl/min; 20°C; 50 mM KCl, 1 mM MgCl2, 0.005% Tween-20, 10 mM imidazole pH 7.0; 1:1 fit, KD from the kinetic rate constants (steady state for several fast-dissociating mutants)
[8] = target: T1, actin capping protein (CP), chicken …; assay: as above

Binder	binding result [1]	binding result [2]	Kd [3] [nM]	koff [3] [s⁻¹]	Kd [8] [nM]	koff [8] [s⁻¹]	kon [8] [M⁻¹ s⁻¹]	further results
GST-CA55 (domain or fragment, CARMIL, mouse, residues 962–1016) FPSVRQEKRSSGLISELPSEEGRRLEHFTKLRPKRNKKQQPTQAAVCTISILPQD	–	–	4000	> 0.1	–	–	–	–
FDSLTVRTSKETDVVNFDDIASSENLLHLTANRPKMPGRRLPG (domain or fragment, CD2AP, human, residues 461–503; cloned into pGEX-6P-1) [GST-CD43]	–	–	260	> 0.1	–	–	–	–
GST-CA92 (domain or fragment, CARMIL, mouse, residues 962–1053) FPSVRQEKRSSGLISELPSEEGRRLEHFTKLRPKRNKKQQPTQAAVCTISILPQDGEQNGLMGRVDEGVDEFFTKKVTKMDCKRSSSRSSDA	–	–	–	–	3.3	0.0052	1.6e+06	Kd [4]: 7400 nM; koff [4]: > 0.1 s⁻¹; Kd [5]: 1400 nM; koff [5]: > 0.1 s⁻¹; Kd [6]: 4900 nM; koff [6]: > 0.1 s⁻¹; Kd [7]: 10 nM; koff [7]: 0.0046 s⁻¹; kon [7]: 460000 M⁻¹ s⁻¹
GST-CA76 (domain or fragment, CARMIL, mouse, residues 962–1037) FPSVRQEKRSSGLISELPSEEGRRLEHFTKLRPKRNKKQQPTQAAVCTISILPQDGEQNGLMGRVDEGVDEFFTKK	–	–	–	–	80	0.019	230000	–
GST-CA63 (domain or fragment, CARMIL, mouse, residues 962–1024) FPSVRQEKRSSGLISELPSEEGRRLEHFTKLRPKRNKKQQPTQAAVCTISILPQDGEQNGLMG	–	–	3300	> 0.1	–	–	–	–

Further lines, with some results ahead:

binding result [1]	binding result [2]	Kd [3] [nM]	koff [3] [s⁻¹]	Kd [8] [nM]	koff [8] [s⁻¹]	kon [8] [M⁻¹ s⁻¹]	Binder	further results
binds	binds	–	–	–	–	–	RLEHFTKLRPKRNKKQQPTQA (CARMIL, mouse, residues 985–1005; also called CARMIL peptide; source: synthetic peptide, Invitrogen) [CA21, mouse CARMIL (residues 985–1005)]	–
–	–	–	–	62	0.033	540000	FDSLTVRTSKETDVVNFDDIASSENLLHLTANRPKMPGRRLPGR (domain or fragment, CD2AP, human, residues 461–504; cloned into pGEX-6P-1) [GST-CD44]	–
–	–	–	–	18	0.029	1.6e+06	FDSLTVRTSKETDVVNFDDIASSENLLHLTANRPKMPGRRLPGRFNG (domain or fragment, CD2AP, human, residues 461–507; cloned into pGEX-6P-1) [GST-CD47]	–
binds	binds	–	–	–	–	–	SYLAHPTRDRAKIQHSRRPPTRG (CKIP-1, human, residues printed as 148–70, read as 148–170 (23 residues); also called CARMIL peptide; source: synthetic peptide, Invitrogen) [CK23, human CKIP-1 (148–70)]	–
binds	binds	–	–	–	–	–	NLLHLTANRPKMPGRRLPGRFNG (CD2AP, human, residues 485–507; also called CARMIL peptide; source: synthetic peptide, Invitrogen) [CD23, human CD2AP (485–507)]	–
